# Source: the DeepSol protein solubility set
# Experiment: soluble on expression in E. coli; label from the status in PepcDB or PDB records
row,Sequence,soluble on expression in E. coli
1,MRIQIRYDDIDYLGHVNNARFLAYFEIGRLSYMKRFFNTRSAKDISMVIARAELDFERSVMFEDDIFVRTWISRVGNRSFDFSYTIEDDGGTVFCRGRTVNVFVEDGKPVSVPDFVKDLVISDVKT,not soluble
2,MIPADGWRHVGDQWLVSTDGAKIHASELADHLLADFGYAIVYDEMAEPVDLYRTQRFANDKQRLILTADQLLCADPQCTRAAYRGQAHHIEAWKNGGDTNLKNLCLTCGPHNALNDDDHAKGKHKNGHYVRDKYNGRIGWQPPDPTKSIRFNNHVLAQKSGRSWAIRHFGL,not soluble
3,MSLSSTFSARGPLLTAAVLLVGLLAGCASSQSATAPSPDDSGQAQSPAQNETGENGLKPFGDVVPDTARTDPGLLTTHRFDGKLYVEIPDSLIGRELLMVSRAAQTPDGFGYGGEKTATQVLRWQRRGDQLYLRVVSHEDMAQEDDPVYQAVQNSNLEPIIQSFSIEALNEDSTGVVAEVTDLFTSDVPSLGIPSAAREEYRVRRLDGDRTYIKGVESFPENTDIEAVLTYQAENPPSNASTKTLTVSMNHSMVLLPKEPMQPRLCDDRVGYFSVERVNYSSDEQRATEACFITRWKLEPKDPEAYARGELVEPKEPIVYYIDPATPKKWRPYLKQGVEAWQSTFREAGFKNAIIAKDPPSAEEDSTFDPDDIRYSTIRYFASEVQNAYGPHVHDPRSGEILESDIGWYHNVMNLLRNWYFVQTAAVNPEARKPVFSTEVMGKLVRFVAAHEVGHTLGLPHNMGSSNAVPVDSLRSPSYTADHGTAPSIMDYARFNYVAQPGDGVENFLPRIGTYDEWAVRWGYTKRPTGSPEEQAQTLDEMILEHTDDPRYFFGASGSIDPRSQSEDLGRDAMEASRLGIANLKRILPNLIQWTSRDGEGYATLEELYGAVVNQWRRYMGHVSQHLGGVHETPKTYGQEGPVYEPVSATDQERAVDFLLTHAFETPTWMVEADVLRRIEHAGALERVREAQVGVLDGVLDPERMARMLEAEAMSEDDVYGVGDLFGDLRGGVWAELESGSVIDPYRRNLQRGYLERLDYLMTAEVEAPPPEYQQYIDYTPVDVSQSDIRPYVRAELKTLRDDVQQGLRRTTDETTEMHLQDVLARIDQTLNGTEGHHHHHH,not soluble
4,NKDWNVYASANFNYNRQEITKLFFGLNKYMLPNTGTIWEIGYPNSFYMAEYAGIDKKTGKQLWYVPGQVDADGNKVTTSQYSADLETRIDKSVTPPITGGFSLGASWKGLSLDADFAYIVGKWMINNDRYFTENGGGLMQLNKDKMLLNAWTEDNKETDVPKLGQSPQFDTHLLENASFLRLKNLKLTYVLPNSLFAGQNVIGGARVYLMARNLLTVTKYKGFDPEAGGNVGKNQYPNSKQYVAGIQLSF,not soluble
5,MAHHHHHHMEEQVDLEKALAVAIKAAQSAGNIMLEFYQLRREDTAAKMMRLLKEGGSHTTGELAASPKPTPVDLLDIKTKSSSTDLVTHYDKLCDETIMKILQRFNAKVEDEKRNEPSEAFSFQFITEELTPDTPLTDEPTWIVDPIDGTMSFVHGGCDCCISIGLAIKKQTVLAVVYCPFLSIVQHSVEDLRSTSAVAGELYTAIRGKGTFLNGQPIRVSADALPNTALVAFNYPMGARLSAAEIPSDSAQVGVLKRQKHRKVVEAAGHIREQLAMHPVQGIRSYGSCALILAQVAAGRIDLYMEPAGMVWDVCAGSLLITEAGGVVKNMWGGDFGLEGTTTIIAAANETLADYGIQLCTQVNYGDYWKK,soluble
6,MGSDKIHHHHHHMLPFLRSELARCQPYHPNPGGTGMAMDILDTNECPYDLPTDLKQTLADRYVEAIASNRYPDGSHTDLKAAIVDYLSEQTAGQWQPGPEHVTVGNGSDELIRSILIATCLGGQGSVLVAEPTFSMYGIVAETLGIPVVRIGRDPQTWEMDLAAAETAITQTEGTPVRLCFVVHPNSPTANPLTEAEKDWLRQVPPQILVVIDEAYFEFSGETLLAELPQHPNWLITRTFSKALRLAAHRVGYGIGDPQLIAALEAIRLPYNLPSVAQLAATLALEARSQLLSAIPRLITERDRLYRKLQVVSQLQVWPSASNFLFLKTQSSSQTAALAAQLKAQGTLVRHTADGLRITIGSPAENERTLAHLQTAITQSLPATV,not soluble
7,SQPDHGRLSPPEAPDRPTISTASETSVYVTWIPRGNGGFPIQSFRVEYKKLKKVGDWILATSAIPPSRLSVEITGLEKGISYKFRVRALNMLGESEPSAPSRPYVVSG,soluble
8,SNNCKENFLTSRYNKPVDEKQYNIPGKVTITTLQNIPVIYKRIVGSYKELELTNPLSELFQYGMEHDLLDKDSSFPLTIYHSHPDITTADNQRASSCIIIKQNVKQLDSEEIGLMEIPSGLYGVIHFEIRQKEYPDAWDFVYGNWLPSSGYLPANSFPFEVYLNNPLEDPLQKHIVDIYIPIEPIN,not soluble
9,MMENYITSFQLRFCPAAYLHLEQLPSLWRSILPYLPQWRDSAHLNAALLDEFSLDTDYEEPHGLGALPLQPQSQLELLLCRLGLVLHGEAIRRCVLASPLQQLLTLVNQETLRQIIVQHELLIGPWPTHWQRPLPTEIESRTMIQSGLAFWLAAMEPQPQAWCKRLSLRLPLATPSEPWLVAESQRPLAQTLCHKLVKQVTPTCSHLFK,not soluble
10,MQDYTVHIVDDEEPVRKSLAFMLTMNGFAVKMHQSAEAFLAFAPDVRNGVLVTDLRMPDMSGVELLRNLGDLKINIPSIVITGHGDVPMAVEAMKAGAVDFIEKPFEDTVIIEAIERASEHLVALE,soluble
11,PSLSDEISPQGDGSFLIEGSTNIRDINKGLKWDLPTDGPRTLNGLILEHLEDIPESHLSVRVAGHPMEIVEIEENRIKLVRVYPKK,not soluble
12,MINPIASLSPLDGRYAQSVEALRPIFSEYGLMKARVKVELNWLKALAAEPKIAEVPPFSAETLAEIDTVIENFSLEDAAAVKAIEATTNHDVKAIEYWLKKRFAEVPEVAAVSEFIHFACTSEDINNLSHALMLQEAREAVLLPKLAEIIEKLTAMAHDLAAVPMMSRTHGQPATPTTLGKETANVVYRLQRQFKNLQAQEFLGKINGAVGNYNAHMVAYPDVDWETHCRNFVEISLGLTFNPYTIQIEPHDYMAEFFQTLSRINTILIDFNRDVWGYISLGYFKQKVKAGEVGSSTMPHKVNPIDFENSEGNLGMANAVLGFLSEKLPISRWQRDLTDSTVLRNMGVGVGYAVLGFAAHLRGLNKLEPNPAALAADLDATWELLAEPIQTVMRRYGVANPYEKLKDLTRGKGGITPEVLKGFIGLLEIPAEAKAKLLELTPALYVGKAEALAKRI,not soluble
13,MQLFDLPLDQLQTYKPEKTAPKDFSEFWKLSLEELAKVQAEPDLQPVDYPADGVKVYRLTYKSFGNARITGWYAVPDKEGPHPAIVKYHGYNASYDGEIHEMVNWALHGYATFGMLVRGQQSSEDTSISPHGHALGWMTKGILDKDTYYYRGVYLDAVRALEVISSFDEVDETRIGVTGGSQGGGLTIAAAALSDIPKAAVADYPYLSNFERAIDVALEEPYLEINSFFRRNGSPETEVQAMKTLSYFDIMNLAYRVKVPVLMSIGLIDKVTPPSTVFAAYNHLETKKELKVYRYFGHEYIPAFQTEKLAFFKQHLKG,soluble
14,MWKTASDKGLGHLLRDVWSLLNEEERELLDKEIQPFPCKKASTVFSEGDIPNNLFYLYEGKIKILREGVYGRFHISRIVKPGQFFGMRPYFAEETCSSTAIAVENSKVLAIPVEAIEALLKGNTSFCRYFLKALAKELGYAERRTVTLTQKHVRGRLAETLLILKENFGFENDGATLSIYLSREELATLSNMTVSNAIRTLSTFVSERMLALDGKRIKIIDCDRLQKTARSG,soluble
15,MNEAEHSVEHPPVQGSHVEGGVVEHPDAKDFGSAAALPADPTWFKHAVFYEVLVRAFFDASADGSGDLRGLIDRLDYLQWLGIDCIWLPPFYDSPLRDGGYDIRDFYKVLPEFGTVDDFVALVDAAHRRGIRIITDLVMNHTSESHPWFQESRRDPDGPYGDYYVWSDTSERYTDARIIFVDTEESNWSFDPVRRQFYWHRFFSHQPDLNYDNPAVQEAMIDVIRFWLGLGIDGFRLDAVPYLFEREGTNCENLPETHAFLKRVRKVVDDEFPGRVLLAEANQWPGDVVEYFGDPNTGGDECHMAFHFPLMPRIFMAVRRESRFPISEIIAQTPPIPDMAQWGIFLRNHDELTLEMVTDEERDYMYAEYAKDPRMKANVGIRRRLAPLLDNDRNQIELFTALLLSLPGSPVLYYGDEIGMGDVIWLGDRDGVRIPMQWTPDRNAGFSTANPGRLYLPPSQDPVYGYQAVNVEAQRDTSTSLLNFTRTMLAVRRRHPAFAVGAFQELGGSNPSVLAYVRQVAGDDGDTVLCVNNLSRFPQPIELDLQQWTNYTPVELTGHVEFPRIGQVPYLLTLPGHGFYWFQLTTHEVGAPPTCGGERRL,soluble
16,MINRTLKQVEQMINGTGLAEQYEGITIQGVSIDTRKIEKGNLYVPIQGERFDGHAFVDKAVENGAVATLWVKDVANPPENLPVIFVEDTLSALQMLAKNYRDQLDVKVIGVTGSNGKTSTKDIVTSLLATKFKVQKTEGNFNNHIGLPLTILNLEENTEVAVLEMGMSSRGEIEFLSKLARPNAAIITNIGEAHLMDLGSREAIAEAKLEIVTGLQEGGVFVYNGDEPLLTNRVPEMNLIAETVTFGDARANDYYPTTVTLQATGTHFKMNREENISFYLPVLGKHNVYNTLASMAIAKYFGVTWEEMKEGLVTLQMTGMRMEIVKTDSGLTIINDAYNASPTAMEAAFHLMNGLDGFSKKIVVLGDMLELGDQEVQFHYEVGKLIDPAKISYVFTYGKLGAQIAEGAKINFPNERVKAYDNKEELVKELQAVVDTKDVVLVKASRGMKLEEVITMLK,not soluble
17,MKVGFFLLKFPLSSETFVLNQITAFIDMGFEVEIVALQKGDTQNTHVAWTKYNLAARTRWLQDEPTGKVAKLRHRASQTLRGIHRKNTWQALNLKRYGAESWNLILSAICGQVATPFRADVFIAHFGPAGVTAAKLRELGVIHGKIATIFHGIDISSREVLNHYTPEYQQLFRRGDLMLPISDLWAGRLQKMGCPREKIAVSRMGVDMTRFSPRPVKAPATPLEIISVARLTEKKGLHVAIEACRQLKEQGVAFRYRILGIGPWERRLRTLIEQYQLEDVVEMPGFKPSHEVKAMLDDADVFLLPSVTGADGDMEGIPVALMEAMAVGIPVVSTLHSGIPELVEADKSGWLVPENDARALAQRLAAFSQLDTDELAPVVKRAREKVEHDFNQQVINRELASLLQAL,not soluble
18,MKDVTIYHNPRCSKSRETLALVEQQGITPQVVLYLETPPSVDKLKELLQQLGFSDARQLMRTKEDLYKTLNLDDRGLTQDQLLQAMADNPKLIERPIVVTQGKARIGRPPEQVLEILK,not soluble
19,MGSDKIHHHHHHMIRLGLTSFSEHDYLTGKKRSTLYEYASHLPLVEMDTAYYGIPPKERVAEWVKAVPENFRFVMKVYSGISCQGEWQTYYASEEEMITAFLESMAPLIESKKLFAFLVQFSGTFGCTKENVAYLQKIRHWFKDLPIAIELRNNSWYQPNFVKQMLQFMKENQFSLVIVDEPQIPTNPVPFYPYVTNPNLVLFRFHGRNAAGWLANDAEWRKKRTLYHYNTQEIADLSEAVLKMSQEAKEVGVIFNNNSGGDAAENALQMQKVLNLSYDDLNPKQLDLF,soluble
20,MGSDKIHHHHHHMGFLAREKVHLKKVVIGGSQDWLKHSYKLFKAIMNRIFGYGNKKSHDQLLQESNQSMNQAQQSLSNRISQLDTQIAQLNFQLQNIQKNLQRSNNKQPSLRKQALKILNKRKQLENMKDSLDSQSWSMTQAQLTNDNLQNTMITINALKQTNNAMKAQYGKINIDKLQDMQDEMLDLIEQGDELQEVLAMNNNSGELDDISDAELDAELDALAQEDFTLPTSENSLGNDMPSYLLGANAPPAFIDEEPNLDTEDKNKALESAQ,not soluble
